{
  "source": "patent US20130150287A1",
  "biological_target": "integrin overexpressed on cancer cells",
  "assay": "cell-based or functional assay",
  "data": [
    {"binder": "CDCRGDCFC", "note": "[RGD peptide (…)]", "values": [
      {"measurement": "reduction of cellular uptake of the recombinant protein particle by B16F10 cells after preincubation with 100-fold molar excess of RGD peptide", "value": 40, "unit": "%"},
      {"measurement": "reduction of cellular uptake of the recombinant protein particle by B16F10 cells after preincubation with 200-fold molar excess of RGD peptide", "value": 95, "unit": "%"},
      {"measurement": "reduction of cellular uptake of the recombinant protein particle by B16F10 cells after preincubation with 400-fold molar excess of RGD peptide", "value": 95, "unit": "%"}
    ]}
  ]
}
